# Experimental data published in article PMC4403821.
# B1: ORF74-Rluc8 [Kaposi's sarcoma-associated herpesvirus (KSHV)] / β-arrestin1-eYFP [not stated] (parent)
# chain 1: MGDKGTRVFKKASPNGKLTVYLGKRDFVDHIDLVDPVDGVVLVDPEYLKERRVYVTLTCAFRYGREDLDVLGLTFRKDLFVANVQSFPPAPEDKKPLTRLQERLIKKLGEHAYPFTFEIPPNLPCSVTLQPGPEDTGKACGVDYEVKAFCAENLEEKIHKRNSVRLVIRKVQYAPERPGPQPTAETTRQFLMSDKPLHLEASLDKEIYYHGEPISVNVHVTNNTNKTVKKIKISVRQYADICLFNTAQYKCPVAMEEADDTVAPSSTFCKVYTLTPFLANNREKRGLALDGKLKHEDTNLASSTLLREGANREILGIIVSYKVKVKLVVSRGGLLGDLASSDVAVELPFTLMHPKPKEEPPHREVPENETPVDTNLIELDTNDDDIVFEDFARQRLKGMKDDKEEEEDGTGSPQLNNR
# chain 2: MAAEDFLTIFLDDDESWNETLNMSGYDYSGNFSLEVSVCEMTTVVPYTWNVGILSLIFLINVLGNGLVTYIFCKHRSRAGAIDILLLGICLNSLCLSISLLAEVLMFLFPNIISTGLCRLEIFFYYLYVYLDIFSVVCVSLVRYLLVAYSTRSWPKKQSLGWVLTSAALLIALVLSGDACRHRSRVVDPVSKQAMCYENAGNMTADWRLHVRTVSVTAGFLLPLALLILFYALTWCVVRRTKLQARRKVRGVIVAVVLLFFVFCFPYHVLNLLDTLLRRRWIRDSCYTRGLINVGLAVTSLLQALYSAVVPLIYSCLGSLFRQRMYGLFQSLRQSFMSGATT
# Variants of: B1
# Test: BRET
# Conditions: with β-arrestin1-eYFP; 300 nM CXCL1 (black bar); vehicle bar ~1.00; parent: 1.14; read off a plot
row,Variant,response [fold basal]
1,chain 2 MAAEDFLTIFLDDDESWNETLNMSGYDYSGNFSLEVSVCEMTTVVPYTWNVGILSLIFLINVLGNGLVTYIFCKHRSRAGAIDILLLGICLNSLCLSISLLAEVLMFLFPNIISTGLCRLEIFFYYLYVYLDIFSVVCVSLVRYLLVAYSTRSWPKKQSLGWVLTSAALLIALVLSGDACRHRSRVVDPVSKQAMCYENAGNMTADWRLHVRTVSVTAGFLLPLALLILFYALTWCVVRRTKLQARRKVRGVIVAVVLLFFVFCFPYHVLNLLDTLLRRRWIRDSCYTRGLINVGLAVTSLLQALYSAVVPLIYACLGALFRQRMYGLFQALRQAFMAGAAA [chain 2 S315A S319A S331A S335A S338A T341A T342A],1
